IntAct's records for PubMed 12529446

Biological target: gef1_schpo gef1 (UniProt Q09763)
Sequence (Q09763 whole entry): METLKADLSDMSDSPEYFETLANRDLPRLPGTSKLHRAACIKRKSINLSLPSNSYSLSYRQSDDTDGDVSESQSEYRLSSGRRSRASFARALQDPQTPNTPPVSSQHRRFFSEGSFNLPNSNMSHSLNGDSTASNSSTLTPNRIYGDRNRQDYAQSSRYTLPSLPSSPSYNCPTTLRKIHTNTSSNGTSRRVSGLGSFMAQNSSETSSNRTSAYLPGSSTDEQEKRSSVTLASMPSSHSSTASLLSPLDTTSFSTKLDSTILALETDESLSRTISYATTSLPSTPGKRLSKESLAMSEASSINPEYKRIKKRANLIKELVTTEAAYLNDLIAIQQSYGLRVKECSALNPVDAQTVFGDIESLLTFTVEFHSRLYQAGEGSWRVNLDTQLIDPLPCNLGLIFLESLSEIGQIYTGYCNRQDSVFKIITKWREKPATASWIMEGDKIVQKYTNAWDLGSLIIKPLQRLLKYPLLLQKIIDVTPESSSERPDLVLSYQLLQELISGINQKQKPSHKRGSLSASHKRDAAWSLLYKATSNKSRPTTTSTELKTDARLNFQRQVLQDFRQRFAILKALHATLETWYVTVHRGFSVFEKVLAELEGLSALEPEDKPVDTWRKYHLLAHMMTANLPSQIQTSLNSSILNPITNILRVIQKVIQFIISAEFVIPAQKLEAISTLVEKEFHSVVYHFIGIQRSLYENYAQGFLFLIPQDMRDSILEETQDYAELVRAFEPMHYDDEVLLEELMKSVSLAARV

Chain of Cell division control protein 42 homolog (Schizosaccharomyces pombe (strain ATCC 38366 / 972)), Q01112 T17N (Q01112 whole entry T17N): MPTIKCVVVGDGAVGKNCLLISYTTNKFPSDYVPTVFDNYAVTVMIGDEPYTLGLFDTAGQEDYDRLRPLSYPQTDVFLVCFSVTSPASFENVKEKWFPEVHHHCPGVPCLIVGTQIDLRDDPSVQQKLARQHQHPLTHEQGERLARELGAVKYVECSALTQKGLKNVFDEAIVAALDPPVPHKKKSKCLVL
Chain of Cell division control protein 42 homolog (Schizosaccharomyces pombe (strain ATCC 38366 / 972)), Q01112 D118A (Q01112 whole entry D118A): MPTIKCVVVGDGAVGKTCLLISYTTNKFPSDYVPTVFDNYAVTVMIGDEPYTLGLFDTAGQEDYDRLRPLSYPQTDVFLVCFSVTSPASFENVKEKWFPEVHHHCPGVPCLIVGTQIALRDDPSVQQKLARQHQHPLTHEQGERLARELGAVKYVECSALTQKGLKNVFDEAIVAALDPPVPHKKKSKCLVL

Substance	effect of a mutation on the interaction
Cell division control protein 42 homolog (Schizosaccharomyces pombe (strain ATCC 38366 / 972)), Q01112 T17N	increasing interaction
Cell division control protein 42 homolog (Schizosaccharomyces pombe (strain ATCC 38366 / 972)), Q01112 D118A	increasing interaction
